Consider 1 molecule from publication PMC9023272 (Nucleic Acids Research, 2022).

Test [1] concerns the target T1, DEAD-box protein 5 (Dbp5), full length (Saccharomyces cerevisiae, UniProt P20449 1-482).
T1 sequence (looked up): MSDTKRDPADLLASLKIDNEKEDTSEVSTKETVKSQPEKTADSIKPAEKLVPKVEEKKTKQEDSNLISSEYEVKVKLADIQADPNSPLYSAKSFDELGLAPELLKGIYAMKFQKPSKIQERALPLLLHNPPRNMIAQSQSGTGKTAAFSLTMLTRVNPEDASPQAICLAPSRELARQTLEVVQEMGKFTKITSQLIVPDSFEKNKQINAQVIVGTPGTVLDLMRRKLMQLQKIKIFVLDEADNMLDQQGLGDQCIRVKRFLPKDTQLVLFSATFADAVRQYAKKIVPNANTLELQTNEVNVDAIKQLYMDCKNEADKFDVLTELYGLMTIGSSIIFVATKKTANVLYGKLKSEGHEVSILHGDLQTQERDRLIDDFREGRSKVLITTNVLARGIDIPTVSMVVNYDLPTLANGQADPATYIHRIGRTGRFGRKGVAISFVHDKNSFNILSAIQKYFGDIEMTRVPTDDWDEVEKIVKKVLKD
In words: detailed balance of Scheme 3 from measured equilibrium constants.

Test [2] deals with T1, DEAD-box protein 5 (Dbp5), full length. In words: detailed balance of Scheme 1 from measured equilibrium constants.
Test [3] has the same target. In words: detailed balance of Scheme 3 from measured equilibrium constants. The source holds these as a separate data set.
For test [4] the target is unchanged. The test can be described thus: stopped-flow fluorescence.
The target is the same in test [5]. In words: detailed balance of Scheme 3 from measured equilibrium constants. This is another data set of the same source.

B1: Gle1 (a.a. 244–538), soluble truncated (domain or fragment, Saccharomyces cerevisiae, UniProt Q12315 244-538, looked up)
chain: TNFDKISKMFWHYKDKIAQIKQDIVLPIKKADVNVRNLLSRHKRKINPKFGQLTNSNQQLFKIQNELTQLINDTKGDSLAYHWILNFIAKAVVHQAETEVRVKPESALPLGKLTLYLLVQFPELQELFMARLVKKCPFVIGFTCEIDTEKGRQNMGWKRNNENKWEDNTSYDERMGGILSLFAIITRLQLPQEFITTTSHPFPIALSWHILARICNTPLNLITNTHFVILGSWWDAAAVQFLQAYGNQASKLLILIGEELTSRMAEKKYVGAARLRILLEAWQNNNMESFPEMSP
As for B1, the Kd in test [1] came out at 1.5 ± 0.8 nM; in test [2], 800 ± 300 nM; in test [3] it was 600 ± 200 nM; in test [4] it was 170 ± 150 nM; in test [5], 500 ± 200 nM.
